Reference: US20120308522A1

B1: recombinant placenta growth factor (P1GF) (ligand, UniProt P49763-2 21-149, looked up)
chain: AVPPQQWALSAGNGSSEVEVVPFQEVWGRSYCRALERLVDVVSEYPSEVEHMFSPSCVSLLRCTGCCGDENLHCVPVETANVTMQLLKIRSGDRPSYVELTFSQHVRCECRPLREKMKPERCGDAVPRR

Columns and labels:
[1] = biological target: high-affinity receptors for VEGF in HUVECs; experiment: cell-based or functional assay
[2] = biological target: Flt-1 VEGF receptor (human (on HUVEC)) (UniProt P17948); experiment: cell-based or functional assay
Sequence of UniProt P17948 (P17948 27-1338): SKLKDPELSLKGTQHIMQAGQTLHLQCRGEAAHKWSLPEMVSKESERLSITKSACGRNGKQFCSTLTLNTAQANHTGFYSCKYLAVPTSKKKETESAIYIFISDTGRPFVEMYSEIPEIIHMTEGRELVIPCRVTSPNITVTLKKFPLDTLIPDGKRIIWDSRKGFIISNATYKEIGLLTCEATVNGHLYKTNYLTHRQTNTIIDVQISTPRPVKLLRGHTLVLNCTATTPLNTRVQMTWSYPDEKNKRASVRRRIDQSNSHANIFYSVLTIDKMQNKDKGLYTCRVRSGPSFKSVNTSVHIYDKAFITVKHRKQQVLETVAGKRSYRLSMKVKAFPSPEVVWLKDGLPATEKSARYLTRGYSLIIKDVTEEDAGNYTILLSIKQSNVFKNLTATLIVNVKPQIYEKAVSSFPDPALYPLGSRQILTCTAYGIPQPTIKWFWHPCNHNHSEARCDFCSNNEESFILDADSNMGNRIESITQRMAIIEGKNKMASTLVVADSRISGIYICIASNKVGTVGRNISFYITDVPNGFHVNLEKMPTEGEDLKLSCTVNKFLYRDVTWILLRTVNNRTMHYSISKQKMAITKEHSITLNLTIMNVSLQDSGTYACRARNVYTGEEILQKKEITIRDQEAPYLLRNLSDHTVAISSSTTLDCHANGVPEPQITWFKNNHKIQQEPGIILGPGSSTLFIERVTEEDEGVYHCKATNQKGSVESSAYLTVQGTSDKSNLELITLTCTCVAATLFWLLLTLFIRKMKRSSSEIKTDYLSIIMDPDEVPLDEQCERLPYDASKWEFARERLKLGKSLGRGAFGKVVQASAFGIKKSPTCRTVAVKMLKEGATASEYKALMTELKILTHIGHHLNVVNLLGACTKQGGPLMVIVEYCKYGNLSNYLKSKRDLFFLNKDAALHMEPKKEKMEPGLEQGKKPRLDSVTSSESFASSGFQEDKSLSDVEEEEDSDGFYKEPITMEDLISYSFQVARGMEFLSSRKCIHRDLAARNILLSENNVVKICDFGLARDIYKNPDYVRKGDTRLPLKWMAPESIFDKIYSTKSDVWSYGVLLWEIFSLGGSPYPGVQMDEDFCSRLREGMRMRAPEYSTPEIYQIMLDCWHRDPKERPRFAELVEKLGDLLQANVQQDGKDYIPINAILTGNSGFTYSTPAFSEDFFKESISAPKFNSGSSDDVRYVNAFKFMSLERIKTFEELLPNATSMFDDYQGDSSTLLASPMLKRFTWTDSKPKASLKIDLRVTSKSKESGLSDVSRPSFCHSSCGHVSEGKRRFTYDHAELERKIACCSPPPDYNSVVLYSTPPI

| Molecule | arachidonic acid release from prelabelled HUVEC, concentration of maximum effect [1] [ng/mL] | arachidonic acid release from prelabelled HUVEC, half-maximum effect [1] [ng/mL] | mean increase in release of labelled arachidonic acid above basal level [1] [fold] | mean fold increase in 6-keto PGF1a above control, 60 min with 60 ng/ml P1GF [2] [fold] |
| --- | --- | --- | --- | --- |
| recombinant human VEGF (vascular endothelial growth factor) (from UniProt P15692 27-191) (ligand) | 10 to 20 | 2.5 to 5 | 1.6 | – |
| B1 | – | – | – | 1.3 |
